Data from patent publication US20230227557A1 (PROMAB BIOTECHNOLOGIES, published 2023).

Target: T1, PD-L1 on PD-L1-positive cancer cells and tissues (human, UniProt Q9NZQ7 19-290)
T1 construct: whole, on cells; also called PD-L1 tumor antigen; CD274
Experiment: flow cytometry on cancer cell lines

T1 sequence (Q9NZQ7 19-290): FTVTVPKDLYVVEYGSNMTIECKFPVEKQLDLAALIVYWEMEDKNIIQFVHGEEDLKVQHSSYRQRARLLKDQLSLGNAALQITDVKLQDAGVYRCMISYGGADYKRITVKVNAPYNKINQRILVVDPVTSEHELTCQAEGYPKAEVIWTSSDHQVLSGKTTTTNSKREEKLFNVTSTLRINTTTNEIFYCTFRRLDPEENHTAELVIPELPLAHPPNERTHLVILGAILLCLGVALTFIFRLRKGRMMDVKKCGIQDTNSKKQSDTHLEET

binding result: binds
B1: mouse monoclonal anti-human PD-L1 antibody (hybridoma clone 7D2A10) (antibody, V domains shown)
VH: QIQLVQSGPELKNPGETVKISCKASGYTFTNYGMNWVKQAPGKGLKWMGWINTHTGEPTYADDFKGRFAFSSETSASSAYLQINNLKNDDMATYFCAKGTHREEIPAWFAYWGQGTLVTVSA
VL: DVLMTQTPLSLPVSLGDQASISCRSSQSIVHSNGNTYLEWYLQKPGQSPELLIYKVSNLFSGVPDRFSGSGSGTDFTLKISRVEAEDLGVYYCFQGSHVPPTFGAGTKLELKR
notes: also called Promab anti-PD-L1; PD-L1 monoclonal antibody
